Data reported in patent US9243032B2, “Compositions for treatment of neurodegenerative diseases” (Ramot at Tel-Aviv University Ltd., priority 2009, dated 2016).
pKd: −log10 of the molar value. Where “and” joins values, the source holds several entries; their conditions need not be identical. Equal values may be shown once. Square brackets hold non-standard residues; d marks the D form. Ends that are not written are not given here. Peptide text beside a SMILES is read from it.

Legend:
[1] = target: T1, α-syn monomers (Homo sapiens, UniProt P37840); test: Fluorescence anisotropy affinity study; type: binding; settings: FIG. 5B, read-out: affinity constant (Kd) towards α-syn monomers
T1 construct: made in house; host or cells: E. coli BL21, pT7-7 vector
Method: Fluorescence Anisotropy Studies: β-syn 36 in which tyrosine was substituted with tryptophan (SEQ ID NO: 22—[…]) was dissolved to a concentration of 54 μM. The solution was immediately mixed with α-syn monomer stock solution to varying final concentrations. The peptide polarization measurements were carried out using an ISS K2 fluorometer. The solutions were excited at 280 nm and emission was monitored at 350 nm. For each single point, at least five measurements were collected and their average values were used for the calculation. All experiments were performed using ultra pure water.
To determine the affinity of the interaction between β-syn 36 and α-syn monomers, a peptide containing tryptophan instead of tyrosine at position 39 within β-syn was used, exploiting its intrinsic fluorescence in a fluorescence anisotropy assay. […] Increasing amount of α-syn monomers were titrated into a solution of β-syn 36 peptide and anisotropy was determined (FIG. 5B). The affinity constant was calculated as ˜1 μM.

[2] = target: T2, α-syn (Homo sapiens, UniProt P37840); test: Transmission electron microscopy of α-syn fibrils; type: biochemical; settings: samples from the ThT experiment; FIGS. 3D-K
T2 construct: made in house; host or cells: E. coli BL21, pT7-7 vector
Method: Transmission Electron Microscopy: Samples (10 μL) from the α-syn ThT fluorescence assay (with and without inhibitors) were placed on 400-mesh copper grids covered by carbon-stabilized Formvar film (SPI Supplies, West Chester, Pa.). After 1.5 minutes, excess fluid was removed, and the grids were negatively stained with 10 μl of 2% uranyl acetate solution for 2 minutes. Finally, excess fluid was removed and the samples were viewed in a JEOL 1200EX electron microscope operating at 80 kV.
Transmission electron microscopy (TEM) analysis was performed on samples of α-syn with and without the β-syn inhibitors.

[3] = target: T2, α-syn; test: ThT fluorescence assay of α-syn fibril formation; type: biochemical; settings: for dose-dependent inhibition of α-syn aggregation: FIG. 3C; for inhibition of fibril formation: as summarised in Example 4
Method: ThT Florescence Assay: α-syn was dissolved to a concentration of 200 μM in 100 mM Tris buffer (pH 7.4). In order to obtain the monomeric fraction, the protein was filtered through a 100 kDa centricon. Since α-syn is not a globular protein but a natively unfolded one, only monomers and some dimers pass through the filter. […] The samples were incubated at 37° C. with agitation of 850 RPM as described by Tsigelny et al. (Tsigelny et al., 2007 Febs J 274(7), 1862-1877) and the fibrillogenesis rate was followed by thioflavin T (ThT) fluorescence assay (excitation at 450 nm, 2.5 nm slit, and emission at 480 nm, 5 nm slit), after three days of incubation. ThT was added to a 500-fold diluted sample and measured using a Jobin Yvon Horiba Fluoromax 3 fluorimeter.
In order to examine the inhibitory effect of the peptides on α-syn fibril formation, the Thioflavin-T (ThT) binding assay was used. This method provides quantitative information on amyloid fibril growth. α-syn was incubated for several days at 37° C. with vigorous shaking to allow the formation of amyloid fibrils with or without the different β-syn-derived peptides. The fibrillization process was monitored for three days.

[4] = target: T2, α-syn; test: Soluble oligomer formation, Western blot; type: biochemical; settings: soluble fraction, ~20-24 hours incubation, FIG. 4B
Method: Determination of Soluble Oligomer Formation: Monomeric α-syn was dissolved to a concentration of 200 μM in 100 mM Tris buffer (pH 7.4) and was immediately mixed with or without different β-syn derived peptides at a 1:1 ration to a final concentration of 100 μM, as was described above for the aggregation assay. […], 10 μl of the protein were centrifuged at 13000 RPM for 10 minutes, the supernatant was collected and electrophoresed in acrylamide gel using native loading buffer without β-mercaptoethanol and boiling. The gel was washed 3 times in ddH2O and samples were then transferred to the nitrocellulose membrane using semi-dry blot technique applying 323 mA current for 30 minutes. The membrane was blocked for 1 hour using 5% milk diluted in TBS (0.3% Tween) while shaking. Anti α-syn diluted 1:1000 (Santa Cruz Biotechnology) in 5% milk in TBS (0.3% tween) was added to the membrane for 2 hours incubation followed by several washes with TBS (0.3% Tween). Rabbit anti mouse IgG (Fc specific)-HRP conjugated antibody diluted 1:5000 in 5% milk diluted in TBS (0.3% Tween) was administrated for 1 hour at RT while shaking. Blots were developed after thorough TBS (0.3% Tween) washes using Enhanced Chemiluminescence System (ECL) according to the manufacturer's instructions.
To examine the ability of the peptides to inhibit the early stage of aggregation, soluble fractions of α-syn were collected after incubation with the β-syn peptides. The reaction mixtures were separated using SDS-PAGE followed by western blot analysis using a specific anti α-syn antibody (Santa-Cruz) (FIG. 4A).

[5] = In vitro peptide stability in mouse brain homogenate; type: in vitro ADME; settings: fresh mouse brain homogenate, 2 hours, 37° C., HPLC, FIGS. 6A-C
Method: In Vitro Assay of Peptide Stability: Peptides were dissolved to form a 1 mM solution in 50 μM Tris buffer (PH=7.6). 120 μl of the peptide solution was diluted into a 10% freshly-taken mouse brain homogenate without the cerebellum (in 1×Tris buffer and 0.5% Triton X-100). A mixture containing 20% peptide solution and 80% mouse brain homogenate was incubated at 37° C. with delicate shaking for 2 hours. The enzyme reaction was stopped by the addition of 0.1 M HCL solution, followed by denaturation of the protein using CH3OH and incubation at 20° C. for 1 hour. The precipitated proteins were centrifuged at 29,000×g for 20 minutes at 4° C. and the supernatant containing the peptide was concentrated under vacuum and separated using a C18 HPLC column. The area of the peak (UV absorbance at 280 nm) corresponding to the intact peptide was compared with an equivalent sample incubated in 50 μM Tris buffer.
Later, the stability of peptide β-syn 36 and the modified retro-inverso peptide was compared using fresh mouse brain homogenate to model serum degradation for a period of 2 hours.

[6] = test system: flies expressing A53T α-syn in their nervous system; type: in vivo, Drosophila
Method: Fly Keeping: Flies were reared on standard corneal-molasses medium and were kept at 25° C. Male flies were crossed with virgin females collected no longer than 8 hours or 18 hours after eclosion at 25° C. or 18° C. respectively. Adult offspring (F1) from the crosses were collected up to 9 days after the beginning of their eclosion at 25° C. in order to avoid offspring from the next generation (F2).
Fly Crossing: Male flies carrying the driver elav-Ga14 on their X chromosome were crossed with females carrying the A53T α-syn transgene located on their X chromosome under the UAS promoter. […] Offspring of male flies carrying the driver elav-Ga14 crossed with WT OR females served as control.
Special Fly Feeding: β-syn retro-inverso peptide was added to standard corneal-molasses medium at a concentration of 0.75 mg/ml. The peptide was mixed thoroughly into the medium at 40° C. and the mixture was aliquot into rearing vials. The vials were kept at 4° C. until use. Crosses were performed either on regular Drosophila medium (control) or on medium supplemented with the peptide. Animals were fed on the appropriate medium from the beginning of the larval stage. After eclosion, offspring were transferred into a new vial that was pre-dripped with 0.75 mg/ml peptide solution every second day.
Locomotive (Climbing) Assay: Test tubes, each containing 10 flies, were tapped gently on the table and were let stand for 20 seconds. The percent of flies which climbed about one centimeter from the bottom of the test tube was then calculated over time. Each class had five independent test tube repeats.
In order to assess the effect of the peptide on α-syn in the living organism, a Drosophila model of PD was used. The transgenic flies over express the mutated […] α-syn in their nervous system, via the Gal4-UAS system. A common behavioral phenotype of these flies is defective locomotion; while normal flies tend to climb up along the tube, these flies remain at the bottom (Ueda et al., (1993) Proc Natl Acad Sci USA 90(23), 11282-11286). […] This cross was performed either on regular Drosophila medium or on medium supplemented with 0.75 mg/mL β-syn 36 retro-inverso peptide.

## CC(C)C[C@H](NC(=O)[C@@H](NC(=O)CN)C(C)C)C(=O)N[C@@H](Cc1c[nH]c2ccccc12)C(=O)N[C@H](C(=O)NCC(=O)N[C@@H](CO)C(=O)N[C@@H](CCCCN)C(=O)N[C@H](C(=O)N[C@@H](CCCNC(=N)N)C(=O)O)[C@@H](C)O)C(C)C (H-GVLWVGSKTR-OH; N-terminus and C-terminus assumed)
[1]
  pKd: ~6.00 and 6.00

## GVLYVGSKTR [β-syn 36, decamer, aa 36-45 of β-syn, natural L-amino acids]
[2]
  fibril formation by TEM: almost completely inhibited fibril formation
[3]; ThT, peptide excess 5:1 (molar ratio)
  dose-dependent inhibition of α-syn aggregation: less efficient
[3]; ThT, peptide excess 10:1 (molar ratio)
  dose-dependent inhibition of α-syn aggregation: still efficient
[3]; ThT, β-syn 36 compared with β-syn 39, FIG. 3B
  inhibition of α-syn aggregation, kinetic analysis: better inhibition
[3]
  inhibition of fibril formation: inhibited almost completely the formation of both aggregation types
[4]
  inhibition of oligomer formation: inhibited almost completely the formation of both aggregation types

## CC(C)C[C@@H](NC(=O)[C@@H](Cc1ccc(O)cc1)NC(=O)[C@H](NC(=O)CNC(=O)[C@@H](CO)NC(=O)[C@@H](CCCCN)NC(=O)[C@H](NC(=O)[C@H](N)CCCNC(=N)N)[C@H](C)O)C(C)C)C(=O)N[C@@H](C(=O)NCC(=O)O)C(C)C [β-syn 36 retro-inverso peptide] (H-[dR][dT][dK][dS]G[dV][dY][dL][dV]G-OH)
[5]
  stability in brain homogenate: elevation in stability
[5]; listed as retro-inverso analogue
  stability in brain homogenate: stable in human serum
[6]; A53T α-syn flies, day 27
  increase in climbing compared to untreated group: 30%
[6]; A53T α-syn flies, medium with 0.75 mg/mL peptide, day 27
  percent of flies climbing: 66%
[6]; control flies on medium with peptide
  effect on locomotion of control flies: no significant effect
[6]; medium with 0.75 mg/mL peptide
  phenotypic recovery of A53T α-syn flies: great phenotypic recovery

## VLYVGSKTRE [β-syn 37, decamer, aa 37-46 of β-syn]
[3]
  inhibition of fibril formation: inhibited the fibrils
[4]
  inhibition of oligomer formation: not the oligomers formation

## SMAKEGV [β-syn 6short, seven amino acids peptide, aa 9-15 of β-syn, positive control selected by Windisch et al, reference compound]
[3]
  inhibition of fibril formation: inhibited the fibrils
[4]
  inhibition of oligomer formation: not the oligomers formation

## YVGSKTR ([dY][dV]G[dS][dK][dT][dR]) [β-syn 36D short, β-syn 36D lacking amino acids G, V, L]
[3]; ThT, FIG. 7F
  inhibition effect on α-syn aggregation: no inhibition effect

## AATGLVKREE [β-syn 78, decamer, aa 78-87 of β-syn]
[3]
  inhibition of fibril formation: not fibril formation
[4]
  inhibition of oligomer formation: inhibited oligomers
